Reference: US20010029022

How the values were obtained:
GST-HPV16 E7 = GST-HPV16 E7 (UniProt P03129)
His-p27 = His-p27 (UniProt P46527)
Sequence of His-p27 (P46527 whole entry, looked up): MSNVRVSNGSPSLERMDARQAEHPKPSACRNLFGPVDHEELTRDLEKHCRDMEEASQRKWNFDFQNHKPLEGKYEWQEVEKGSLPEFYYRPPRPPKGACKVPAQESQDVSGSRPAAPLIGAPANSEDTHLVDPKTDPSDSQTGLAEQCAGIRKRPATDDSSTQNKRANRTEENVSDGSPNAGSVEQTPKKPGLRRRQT

Sequence of GST-HPV16 E7 (P03129 whole entry): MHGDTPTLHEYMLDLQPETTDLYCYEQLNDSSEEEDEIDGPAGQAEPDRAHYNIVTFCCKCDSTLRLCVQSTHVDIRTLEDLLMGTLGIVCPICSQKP

## cyclin A/CDK2 complex
Histone H1
  Km for histone H1 (cyclinA/CDK2 pre-incubated with HPV16-E7, Michaelis-Menten fit): a Km of 1.1+/-0.2 µM for histone H1

## cyclin E/CDK2 complex
GST-HPV16 E7
  cyclin E/CDK2 phosphorylation of purified MBP-HPV 18 E1 fusion protein: stimulated 2.3-fold by the addition of HPV 16E7
  cyclinE/CDK2 kinase activity with histoneH1 as the substrate, increase over controls: a large increase (26-fold and 13-fold) over controls
  cyclinE/CDK2 kinase activity with pRb as the substrate, increase over background: 1.9-fold increase over background
His-p27
  cyclin E/CDK2 phosphorylation of MBP-HPV 18 E1: The phosphorylation of E1 was completely inhibited by the addition of p27 even in the presence of excess GST-16E7

## CDK5 complexed with p25
GST-HPV16 E7
  H1 phosphorylation by CDK5 complexed with p25, increase over controls: a 4.5-fold increase over controls
